From US20070161569A1 (GENERAL HOSPITAL, published 2007) come the findings set out here.

Assay [1] deals with T1, recombinant P1R chimera expressed in HKRK-B28 cells (opossum P1R from the N-terminus to the mid region of … (opossum; rat, UniProt P25107 27-288; P25961 295-591, limits assumed).
T1 construct: domain: N-terminus to the mid region of TM3;domain: mid region of TM3 to the C-terminus; also called PTH-1 receptor; receptor of HKRK-B28 cells
Description: competition binding on B28 cells against 125I-PTH(1-21) tracer (SEQ ID NO 36). The protocol:
(§1) Competition Binding. Binding reactions were performed with HKRK-B28 cells or in COS-7 cells in 24-well plates. The cells were rinsed with 0.5 mL of binding buffer, and then treated successively with 100 μL binding buffer, 100 μL of binding buffer containing various amounts of unlabeled competitor ligand, and 100 μL of binding buffer containing ca. 100,000 cpm of ¹²⁵I-[Aib^{1,3},Nle⁸,Gln¹⁰,Har¹¹,Ala¹²,Trp¹⁴,Arg¹⁹,Tyr²¹]rPTH(1-21) (SEQ. ID. NO. 36) (ca. 26 fmol; final volume=300 μL). Incubations were 4 to 6 h at 4° C., at which time near equilibrium conditions were attained. Cells were then placed on ice, the binding medium was removed, and the monolayer was rinsed three times with 0.5 mL of cold binding buffer. The cells were subsequently lysed with 0.5 mL 5N NaOH and counted for radioactivity. For each tracer and in each experiment, the non-specific binding was determined as the radioactivity that bound in the presence of the same unlabeled peptide at a concentration of 1 μM, and was ˜1% of total radioactivity added for each tracer. The maximum specific binding (B₀) was the total radioactivity bound in the absence of competing ligand, corrected for nonspecific binding, and for each tracer, ranged from 8% to 20% of the total radioactivity added. Nonlinear regression was used to calculate binding IC₅₀ values (see below). Scatchard transformations of homologous competition binding data derived from studies with 26 fmol of ¹²⁵I-[Aib^{1,3},Nle⁸,Gln¹⁰,Har¹¹,Ala¹²,Trp¹⁴, Arg¹⁹,Tyr²¹]rPTH(1-21) (SEQ. ID. NO. 36) were employed for estimations of apparent equilibrium dissociation constant (kDapps) and total number of ligand binding sites (Bₘₐₓ), assuming a single class of binding sites and equal affinities of the iodinated and non iodinated ligand.

The target of assay [2] is T1, recombinant P1R chimera expressed in …. Description: competition binding on HKRK-B28 cells against 125I-PTH(1-21) tracer (SEQ ID NO 36). The procedure: as §1, with “Incubations” for “Competition Binding. Binding reactions were performed with HKRK-B28 cells or in COS-7 cells in 24-well plates. The cells were rinsed with 0.5 mL of binding buffer, and then treated successively with 100 μL binding buffer, 100 μL of binding buffer containing various amounts of unlabeled competitor ligand, and 100 μL of binding buffer containing ca. 100,000 cpm of ¹²⁵I-[Aib^{1,3},Nle⁸,Gln¹⁰,Har¹¹,Ala¹²,Trp¹⁴,Arg¹⁹,Tyr²¹]rPTH(1-21) (SEQ. ID. NO. 36) (ca. 26 fmol; final volume=300 μL). Incubations”, “ligand. […]” for “ligand.”

The target is the same in assay [3]. Description: cell-based or functional assay.
Assay [4] deals with T2, P1R-delNt, a recombinant human PTH-1 receptor construct in which most of the amino-terminal extracellular … (human, UniProt Q03431 23-593, limits assumed).
T2 sequence (looked up): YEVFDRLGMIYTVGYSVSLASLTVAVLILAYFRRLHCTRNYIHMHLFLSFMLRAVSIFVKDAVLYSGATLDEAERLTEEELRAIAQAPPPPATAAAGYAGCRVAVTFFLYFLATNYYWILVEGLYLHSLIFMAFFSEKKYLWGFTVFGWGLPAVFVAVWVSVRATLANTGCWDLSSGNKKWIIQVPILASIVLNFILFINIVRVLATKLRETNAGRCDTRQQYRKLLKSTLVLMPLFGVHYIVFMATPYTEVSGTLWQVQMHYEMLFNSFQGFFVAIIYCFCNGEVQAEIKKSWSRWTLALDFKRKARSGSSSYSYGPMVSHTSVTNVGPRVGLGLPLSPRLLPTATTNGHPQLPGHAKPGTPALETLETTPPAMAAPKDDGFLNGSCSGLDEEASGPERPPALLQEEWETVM
Description: cell-based or functional assay.

In assay [5] the target is T3, wild-type human P1R transiently expressed in COS-7 cells (human, UniProt Q03431 27-593).
T3 sequence (looked up): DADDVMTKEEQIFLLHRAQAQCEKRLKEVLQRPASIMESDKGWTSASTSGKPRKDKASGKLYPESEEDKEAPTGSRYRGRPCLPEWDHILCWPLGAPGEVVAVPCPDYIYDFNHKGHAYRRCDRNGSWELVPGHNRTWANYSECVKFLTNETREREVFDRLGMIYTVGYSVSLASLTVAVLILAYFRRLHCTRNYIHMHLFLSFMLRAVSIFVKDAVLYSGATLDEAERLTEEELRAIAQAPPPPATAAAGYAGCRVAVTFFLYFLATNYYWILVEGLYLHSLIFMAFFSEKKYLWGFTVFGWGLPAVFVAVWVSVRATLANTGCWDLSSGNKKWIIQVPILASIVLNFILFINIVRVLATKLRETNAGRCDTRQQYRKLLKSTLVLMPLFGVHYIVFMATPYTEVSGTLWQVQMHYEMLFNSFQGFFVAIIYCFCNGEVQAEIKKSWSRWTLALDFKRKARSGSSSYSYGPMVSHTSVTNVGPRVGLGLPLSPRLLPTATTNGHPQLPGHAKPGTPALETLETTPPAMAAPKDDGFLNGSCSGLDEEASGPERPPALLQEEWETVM
Description: cell-based or functional assay.

The target in assay [6] is T1, recombinant P1R chimera expressed in …. Description: competition binding to the P1R (HKRK-B28 cells by the FIG. 3 legend). The procedure: as §1, with “Scatchard transformations of homologous competition binding data derived from studies with 26 fmol of ¹²⁵I-[Aib^{1,3},Nle⁸,Gln¹⁰,Har¹¹,Ala¹²,Trp¹⁴, Arg¹⁹,Tyr²¹]rPTH(1-21) (SEQ. ID. NO. 36) were employed for estimations of apparent equilibrium dissociation constant (kDapps) and total number of ligand binding sites (Bₘₐₓ), assuming a single class of binding sites and equal affinities of the iodinated and non iodinated ligand.” left out

Non-standard residues stand in square brackets, D forms with d. No end group written: not given here. hArg = N=C(N)NCCCC[C@H](N)C(=O)O; Ac5c = NC1(C(=O)O)CCCC1; Deg = CCC(N)(CC)C(=O)O; Ac3c = NC1(C(=O)O)CC1; Aib = CC(C)(N)C(=O)O

T1 sequence (P25107 other isoform, or with tags, fused parts or gaps limits assumed): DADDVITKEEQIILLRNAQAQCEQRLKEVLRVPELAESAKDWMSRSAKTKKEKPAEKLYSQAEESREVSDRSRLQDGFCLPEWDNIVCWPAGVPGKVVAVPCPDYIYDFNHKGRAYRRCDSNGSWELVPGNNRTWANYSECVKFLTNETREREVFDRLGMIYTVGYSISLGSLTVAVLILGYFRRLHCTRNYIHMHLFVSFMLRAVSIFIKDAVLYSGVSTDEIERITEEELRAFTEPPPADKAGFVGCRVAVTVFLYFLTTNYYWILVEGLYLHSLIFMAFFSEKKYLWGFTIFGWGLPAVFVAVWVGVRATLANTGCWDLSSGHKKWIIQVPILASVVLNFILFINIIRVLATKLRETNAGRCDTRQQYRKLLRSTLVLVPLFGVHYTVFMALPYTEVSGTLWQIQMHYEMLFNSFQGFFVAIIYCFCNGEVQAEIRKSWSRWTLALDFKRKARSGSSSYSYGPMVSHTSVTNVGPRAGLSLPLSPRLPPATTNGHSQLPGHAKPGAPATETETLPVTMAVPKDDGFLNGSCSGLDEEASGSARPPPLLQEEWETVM

B1: [M]PTH(1-14) analog in which alanine-3 is substituted with 1-aminocyclopropane-1-carboxylic acid (Ac3c) (peptide)
peptide: AV[Ac3c]EIQLMHQ[hArg]AKW-NH2
modifications: N-terminus assumed
SMILES: CC[C@H](C)[C@H](NC(=O)[C@H](CCC(=O)O)NC(=O)C1(NC(=O)[C@@H](NC(=O)[C@H](C)N)C(C)C)CC1)C(=O)N[C@@H](CCC(N)=O)C(=O)N[C@@H](CC(C)C)C(=O)N[C@@H](CCSC)C(=O)N[C@@H](Cc1c[nH]cn1)C(=O)N[C@@H](CCC(N)=O)C(=O)N[C@@H](CCCCNC(=N)N)C(=O)N[C@@H](C)C(=O)N[C@@H](CCCCN)C(=O)N[C@@H](Cc1c[nH]c2ccccc12)C(N)=O
notes: also called Ac3c^3-containing analog; Ac3c-3
As for B1, the “fold lower affinity than [M]PTH(1-14)” value in assay [1] is 14 fold. The “fold reduced affinity relative to the parent analog” value in assay [2] is around 10 fold. In addition, in assay [3], the “cAMP-stimulating potency, fold increase over the parent analog” value was below 2 fold.

B2: [Ac5c^1,Aib^3,Gln^10,Har^11,Ala^12,Trp^14]PTH(1-14)NH2 (peptide)
peptide: [Ac5c]V[Aib]EIQLMHQ[hArg]AKW-NH2
notes: also called [Ac5c^1,Aib^3,M]PTH(1-14)
Consider B2, for which, in assay [1], the IC50 (commonly the midpoint of a concentration-inhibition curve) came to 100 nM and the “fold more potent than [Aib^1,3,M]PTH(1-14) for inhibiting tracer binding” value turned out to be 2 fold. In addition, in assay [3], the “cAMP potency (EC50)” value was determined as 0.9 nM; the “increase in cAMP levels relative to basal, peptide at 10 nM, HKRK-B28 cells” value came out at 38 fold; the “stimulating adenylyl cyclase, fold more potent than [Aib^1,3,M]PTH(1-14)” value is 2 fold. Moreover, in assay [4], the “cAMP EC50 in LdelNt-2 cells” value was found to be 6.4 nM and the “increase in cAMP accumulation in LdelNt-2 cells” value was 70 fold. Besides, in assay [5], the “stimulating phospholipase C, fold more potent than [Aib^1,3,M]PTH(1-14)” value turned out to be 2 fold.

B3: [Deg^1,3,Gln^10,Har^11,Ala^12,Trp^14]PTH(1-14)NH2 (peptide)
peptide: [Deg]V[Deg]EIQLMHQ[hArg]AKW-NH2
modifications: N-terminus assumed
SMILES: CC[C@H](C)[C@H](NC(=O)[C@H](CCC(=O)O)NC(=O)C(CC)(CC)NC(=O)[C@@H](NC(=O)C(N)(CC)CC)C(C)C)C(=O)N[C@@H](CCC(N)=O)C(=O)N[C@@H](CC(C)C)C(=O)N[C@@H](CCSC)C(=O)N[C@@H](Cc1c[nH]cn1)C(=O)N[C@@H](CCC(N)=O)C(=O)N[C@@H](CCCCNC(=N)N)C(=O)N[C@@H](C)C(=O)N[C@@H](CCCCN)C(=O)N[C@@H](Cc1c[nH]c2ccccc12)C(N)=O
notes: also called [Deg^1,3,M]PTH(1-14)
In the case of B3, in assay [6], the “fold higher affinity than the parent peptide” value amounted to 50 fold. In assay [4], the “cAMP EC50 in LdelNt-2 cells” value was found to be 1400 nM and the “cAMP Emax over basal in LdelNt-2 cells (partial agonist behavior)” value came to 23 fold.

B4: [Ala^1,3,12,Gln^10,Har^11,Trp^14]PTH(1-14)NH2 (peptide)
peptide: AVAEIQLMHQ[hArg]AKW-NH2
modifications: N-terminus assumed
SMILES: CC[C@H](C)[C@H](NC(=O)[C@H](CCC(=O)O)NC(=O)[C@H](C)NC(=O)[C@@H](NC(=O)[C@H](C)N)C(C)C)C(=O)N[C@@H](CCC(N)=O)C(=O)N[C@@H](CC(C)C)C(=O)N[C@@H](CCSC)C(=O)N[C@@H](Cc1c[nH]cn1)C(=O)N[C@@H](CCC(N)=O)C(=O)N[C@@H](CCCCNC(=N)N)C(=O)N[C@@H](C)C(=O)N[C@@H](CCCCN)C(=O)N[C@@H](Cc1c[nH]c2ccccc12)C(N)=O
notes: also called [M]PTH(1-14); parent
For B4, the IC50 in assay [1] was around 3000 nM. Moreover, the IC50 in assay [2] was determined as 27000 nM. In assay [3], the “cAMP accumulation potency (EC50) in HKRK-B28 cells” value is 220 nM and the “cAMP potency (EC50)” value was 200 nM.

B5: [Ac5c^1,3,Gln^10,Har^11,Ala^12,Trp^14]PTH(1-14)NH2 (peptide)
peptide: [Ac5c]V[Ac5c]EIQLMHQ[hArg]AKW-NH2
notes: also called [Ac5c^1,3,M]PTH(1-14)
On to B5, for which the “fold higher affinity than the parent peptide” value in assay [6] is 20 fold. Further, the “cAMP signaling, fold more potent than the parent peptide” value in assay [3] was 30 fold.
